In article PMC8510090, “The DNA Recognition Motif of GapR Has an Intrinsic DNA Binding Preference towards AT-rich DNA” (Molecules, 2021):

Tests used:
GapRΔC17 [1] = biological target: T1, GapRΔC17 (Caulobacter crescentus, UniProt B8H4R9 1-72); assay: MST; MST: 20 mM PBS, 150 mM NaCl, 0.02% n-dodecyl-β-D-maltoside, pH 7, 20 nM labeled dimer (labeling at room temperature); NMR netropsin competition: 50 mM sodium phosphate, 150 mM NaCl, pH 7.0, 90% H2O/5% D2O (so in the source); details: protein: recombinant, tags: C-terminal His6, chain copies: 2
T1 sequence: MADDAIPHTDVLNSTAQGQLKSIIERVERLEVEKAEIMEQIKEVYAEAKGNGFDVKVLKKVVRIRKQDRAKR

[2] = biological target: the molecule itself; assay: crystal structure; hanging drop vapor diffusion at room temperature; protein 10 mg/mL in 50 mM HEPES pH 7.0, 300 mM NaCl; 0.1 M sodium cacodylate pH 6.0, 15% PEG4000; 2.08 angstrom
GapRΔC17 [3] = biological target: T1, GapRΔC17; assay: NMR titration (1H-15N HSQC); MST: 20 mM PBS, 150 mM NaCl, 0.02% n-dodecyl-β-D-maltoside, pH 7, 20 nM labeled dimer (labeling at room temperature); NMR netropsin competition: 50 mM sodium phosphate, 150 mM NaCl, pH 7.0, 90% H2O/5% D2O (so in the source); details: protein: recombinant; tags: C-terminal His6; chain copies: 2

B1: 6CG DNA (dsDNA)
DNA 1: CGCGCGCGCGCG
DNA 2: CGCGCGCGCGCG
GapRΔC17 [1]
  Kd: 18 ± 2 µM

B2: GapR^ΔC17 (DNA binding domain of GapR, residues 1–72) (domain or fragment, Caulobacter crescentus, UniProt B8H4R9 1-72, looked up)
chain: T1 sequence
notes: GapR, nucleoid-associated protein of Caulobacter crescentus, gene gapr (CCNA_03428), residues 1-72 (the C-terminal 17 residues, most of helix α3, deleted); 8.2 kDa; Cloned into the NdeI and XhoI sites of pET-21a(+) and followed by a C-terminal His6-tag; A selenomethionyl derivative was used for phasing; also called DNA recognition motif of GapR; dimer unit of GapR; source: E. coli Rosetta (DE3), …
[2]
  binding result: binds

B3: 3AT DNA (dsDNA)
DNA 1: CGCATATATGCG
DNA 2: CGCATATATGCG
GapRΔC17 [3]
  binding result: binds

B4: 6A DNA (dsDNA)
DNA 1: CGCAAAAAAGCG
DNA 2: CGCTTTTTTGCG
GapRΔC17 [1]; blunt
  Kd: 1.1 ± 0.1 µM
